B1: Flag-PLK4 wt (polo-like kinase 4), full-length [human] / CEP152, endogenous [human (endogenous in HEK293T)] (parent complex)
chain 1: MATCIGEKIEDFKVGNLLGKGSFAGVYRAESIHTGLEVAIKMIDKKAMYKAGMVQRVQNEVKIHCQLKHPSILELYNYFEDSNYVYLVLEMCHNGEMNRYLKNRVKPFSENEARHFMHQIITGMLYLHSHGILHRDLTLSNLLLTRNMNIKIADFGLATQLKMPHEKHYTLCGTPNYISPEIATRSAHGLESDVWSLGCMFYTLLIGRPPFDTDTVKNTLNKVVLADYEMPSFLSIEAKDLIHQLLRRNPADRLSLSSVLDHPFMSRNSSTKSKDLGTVEDSIDSGHATISTAITASSSTSISGSLFDKRRLLIGQPLPNKMTVFPKNKSSTDFSSSGDGNSFYTQWGNQETSNSGRGRVIQDAEERPHSRYLRRAYSSDRSGTSNSQSQAKTYTMERCHSAEMLSVSKRSGGGENEERYSPTDNNANIFNFFKEKTSSSSGSFERPDNNQALSNHLCPGKTPFPFADPTPQTETVQQWFGNLQINAHLRKTTEYDSISPNRDFQGHPDLQKDTSKNAWTDTKVKKNSDASDNAHSVKQQNTMKYMTALHSKPEIIQQECVFGSDPLSEQSKTRGMEPPWGYQNRTLRSITSPLVAHRLKPIRQKTKKAVVSILDSEEVCVELVKEYASQEYVKEVLQISSDGNTITIYYPNGGRGFPLADRPPSPTDNISRYSFDNLPEKYWRKYQYASRFVQLVRSKSPKITYFTRYAKCILMENSPGADFEVWFYDGVKIHKTEDFIQVIEKTGKSYTLKSESEVNSLKEEIKMYMDHANEGHRICLALESIISEEERKTRSAPFFPIIIGRKPGSTSSPKALSPPPSVDSNYPTRERASFNRMVMHSAASPTQAPILNPSMVTNEGLGLTTTASGTDISSNSLKDCLPKSAQLLKSVFVKNVGWATQLTSGAVWVQFNDGSQLVVQAGVSSISYTSPNGQTTRYGENEKLPDYIKQKLQCLSSILLMFSNPTPNFH
chain 2: MSLDFGSVALPVQNEDEEYDEEDYEREKELQQLLTDLPHDMLDDDLSSPELQYSDCSEDGTDGQPHHPEQLEMSWNEQMLPKSQSVNGYNEIQSLYAGEKCGNVWEENRSKTEDRHPVYHPEEGGDEGGSGYSPPSKCEQTDLYHLPENFRPYTNGQKQEFNNQATNVIKFSDPQWNHFQGPSCQGLEPYNKVTYKPYQSSAQNNGSPAQEITGSDTFEGLQQQFLGANENSAENMQIIQLQVLNKAKERQLENLIEKLNESERQIRYLNHQLVIIKDEKDGLTLSLRESQKLFQNGKEREIQLEAQIKALETQIQALKVNEEQMIKKSRTTEMALESLKQQLVDLHHSESLQRAREQHESIVMGLTKKYEEQVLSLQKNLDATVTALKEQEDICSRLKDHVKQLERNQEAIKLEKTEIINKLTRSLEESQKQCAHLLQSGSVQEVAQLQFQLQQAQKAHAMSANMNKALQEELTELKDEISLYESAAKLGIHPSDSEGELNIELTESYVDLGIKKVNWKKSKVTSIVQEEDPNEELSKDEFILKLKAEVQRLLGSNSMKRHLVSQLQNDLKDCHKKIEDLHQVKKDEKSIEVETKTDTSEKPKNQLWPESSTSDVVRDDILLLKNEIQVLQQQNQELKETEGKLRNTNQDLCNQMRQMVQDFDHDKQEAVDRCERTYQQHHEAMKTQIRESLLAKHALEKQQLFEAYERTHLQLRSELDKLNKEVTAVQECYLEVCREKDNLELTLRKTTEKEQQTQEKIKEKLIQQLEKEWQSKLDQTIKAMKKKTLDCGSQTDQVTTSDVISKKEMAIMIEEQKCTIQQNLEQEKDIAIKGAMKKLEIELELKHCENITKQVEIAVQNAHQRWLGELPELAEYQALVKAEQKKWEEQHEVSVNKRISFAVSEAKEKWKSELENMRKNILPGKELEEKIHSLQKELELKNEEVPVVIRAELAKARSEWNKEKQEEIHRIQEQNEQDYRQFLDDHRNKINEVLAAAKEDFMKQKTELLLQKETELQTCLDQSRREWTMQEAKRIQLEIYQYEEDILTVLGVLLSDTQKEHISDSEDKQLLEIMSTCSSKWMSVQYFEKLKGCIQKAFQDTLPLLVENADPEWKKRNMAELSKDSASQGTGQGDPGPAAGHHAQPLALQATEAEADKKKVLEIKDLCCGHCFQELEKAKQECQDLKGKLEKCCRHLQHLERKHKAVVEKIGEENNKVVEELIEENNDMKNKLEELQTLCKTPPRSLSAGAIENACLPCSGGALEELRGQYIKAVKKIKCDMLRYIQESKERAAEMVKAEVLRERQETARKMRKYYLICLQQILQDDGKEGAEKKIMNAASKLATMAKLLETPISSKSQSKTTQSALPLTSEMLIAVKKSKRNDVNQKIPCCIESKSNSVNTITRTLCEQAPKRRAACNLQRLLENSEHQSIKHVGSKETHLEFQFGDGSCKHLNSLPRNVSPEFVPCEGEGGFGLHKKKDLLSDNGSESLPHSAAYPFLGTLGNKPSPRCTPGPSESGCMHITFRDSNERLGLKVYKCNPLMESENAASEKSQGLDVQEPPVKDGGDLSDCLGWPSSSATLSFDSREASFVHGRPQGTLEIPSESVKSKQFSPSGYLSDTEESNMICQTMKCQRYQTPYLSEETTYLEPGKISVNCGHPSRHKADRLKSDFKKLSSTLPSSVCQQPSRKLIVPLSSQQDSGFDSPFVNLD
B2: Flag-PLK4 wt (polo-like kinase 4), full-length [human] / DCAF1 (VprBP), endogenous [human (endogenous in HEK293T)] (parent complex)
chain 1: B1 chain 1
chain 2: not shown
B3: Flag-PLK4 wt (polo-like kinase 4), full-length [human] / CEP192, endogenous [human (endogenous in HEK293T)] (parent complex)
chain 1: B1 chain 1
chain 2: MEDFRGIAEESFPSFLTNSLFGNSGILENVTLSSNLGLPVAVSTLARDRSSTDNRYPDIQASYLVEGRFSVPSGSSPGSQSDAEPRERLQLSFQDDDSISRKKSYVESQRLSNALSKQSALQMETAGPEEEPAGATESLQGQDLFNRASPLEQAQDSPIDFHLQSWMNNKEPKIVVLDAGKHFEDKTLKSDLSHTSLLENEKLILPTSLEDSSDDDIDDEMFYDDHLEAYFEQLAIPGMIYEDLEGPEPPEKGFKLPTNGLRQANENGSLNCKFQSENNSSLISLDSHSSETTHKESEESQVICLPGTSNSIGTGDSRRYTDGMLPFSSGTWGTEKEIENLKGIVPDLNSECASKDVLVKTLRAIDVKLNSDNFHDANANRGGFDLTDPVKQGAECPHQNKTVLHMDGCLDTETPTVSIQENVDVASLKPISDSGINFTDAIWSPTCERRTCECHESIEKNKDKTDLPQSVVYQNEEGRWVTDLAYYTSFNSKQNLNVSLSDEMNEDFRSGSEAFDLIAQDEEEFNKEHQFIQEENIDAHNTSVALGDTSWGATINYSLLRKSRSTSDLDKDDASYLRLSLGEFFAQRSEALGCLGGGNNVKRPSFGYFIRSPEKREPIALIRKSDVSRGNLEKEMAHLNHDLYSGDLNEQSQAQLSEGSITLQVEAVESTSQVDENDVTLTADKGKTEDTFFMSNKPQRYKDKLPDSGDSMLRISTIASAIAEASVNTDPSQLAAMIKALSNKTRDKTFQEDEKQKDYSHVRHFLPNDLEKSNGSNALDMEKYLKKTEVSRYESALENFSRASMSDTWDLSLPKEQTTQDIHPVDLSATSVSVRAPEENTAAIVYVENGESENQESFRTINSSNSVTNRENNSAVVDVKTCSIDNKLQDVGNDEKATSISTPSDSYSSVRNPRITSLCLLKDCEEIRDNRENQRQNECVSEISNSEKHVTFENHRIVSPKNSDLKNTSPEHGGRGSEDEQESFRPSTSPLSHSSPSEISGTSSSGCALESFGSAAQQQQPPCEQELSPLVCSPAGVSRLTYVSEPESSYPTTATDDALEDRKSDITSELSTTIIQGSPAALEERAMEKLREKVPFQNRGKGTLSSIIQNNSDTRKATETTSLSSKPEYVKPDFRWSKDPSSKSGNLLETSEVGWTSNPEELDPIRLALLGKSGLSCQVGSATSHPVSCQEPIDEDQRISPKDKSTAGREFSGQVSHQTTSENQCTPIPSSTVHSSVADMQNMPAAVHALLTQPSLSAAPFAQRYLGTLPSTGSTTLPQCHAGNATVCGFSGGLPYPAVAGEPVQNSVAVGICLGSNIGSGWMGTSSLCNPYSNTLNQNLLSTTKPFPVPSVGTNCGIEPWDSGVTSGLGSVRVPEELKLPHACCVGIASQTLLSVLNPTDRWLQVSIGVLSISVNGEKVDLSTYRCLVFKNKAIIRPHATEEIKVLFIPSSPGVFRCTFSVASWPCSTDAETIVQAEALASTVTLTAIAESPVIEVETEKKDVLDFGDLTYGGWKALPLKLINRTHATVPIRLIINANAVAWRCFTFSKESVRAPVEVAPCADVVTRLAGPSVVNHMMPASYDGQDPEFLMIWVLFHSPKKQISSSDILDSAEEFSAKVDIEVDSPNPTPVLRSVSLRARAGIARIHAPRDLQTMHFLAKVASSRKQHLPLKNAGNIEVYLDIKVPEQGSHFSVDPKNLLLKPGEEHEVIVSFTPKDPEACEERILKIFVQPFGPQYEVVLKGEVISSGSKPLSPGPCLDIPSILSNKQFLAWGGVPLGRTQLQKLALRNNSASTTQHLRLLIRGQDQDCFQLQNTFGSEQRLTSNCEIRIHPKEDIFISVLFAPTRLSCMLARLEIKQLGNRSQPGIKFTIPLSGYGGTSNLILEGVKKLSDSYMVTVNGLVPGKESKIVFSVRNTGSRAAFVKAVGFKDSQKKVLLDPKVLRIFPDKFVLKERTQENVTLIYNPSDRGINNKTATELSTVYLFGGDEISRQQYRRALLHKPEMIKQILPEHSVLQNINFVEAFQDELLVTEVYDLPQRPNDVQLFYGSMCKIILSVIGEFRDCISSREFLQPSSKASLESTSDLGASGKHGGNVSLDVLPVKGPQGSPLLSRAARPPLDQLASEEPWTVLPEHLILVAPSPCDMAKTGRFQIVNNSVRLLRFELCWPAHCLTVTPQHGCVAPESKLQILVSPNSSLSTKQSMFPWSGLIYIHCDDGQKKIVKVQIREDLTQVELLTRLTSKPFGILSPVSEPSVSHLVKPMTKPPSTKVEIRNKSITFPTTEPGETSESCLELENHGTTDVKWHLSSLAPPYVKGVDESGDVFRATYAAFRCSPISGLLESHGIQKVSITFLPRGRGDYAQFWDVECHPLKEPHMKHTLRFQLSGQSIEAENEPENACLSTDSLIKIDHLVKPRRQAVSEASARIPEQLDVTARGVYAPEDVYRFRPTSVGESRTLKVNLRNNSFITHSLKFLSPREPFYVKHSKYSLRAQHYINMPVQFKPKSAGKFEALLVIQTDEGKSIAIRLIGEALGKN

Variants of: B1
Assay: co-immunoprecipitation (IP against Flag tag, Western blot quantification); HEK293T cells, 48 h overexpression, N = 3; read off a plot

Variant | ratio to parent
chain 1 K608A | ~0.16
chain 1 K699A | ~0.09
chain 1 R691A | ~0.83
chain 1 I602E | ~0.03

Variants of: B2
Assay: as above

Variant | ratio to parent
chain 1 R691A | ~0.05
chain 1 I602E | ~0.01
chain 1 K608A | ~0
chain 1 K699A | ~0

Variants of: B2
Assay: as above
Remark: another data set of the same source

Variant | ratio to parent
chain 1 K748A | ~1.5
chain 1 K753A | ~1.6

Variants of: B2
Assay: as above
Remark: another data set of the same source

Variant | ratio to parent
chain 1 S285A, chain 1 T289A | ~0.58
chain 1 K41R | ~0.79

Variants of: B3
Assay: as above

Variant | ratio to parent
chain 1 K608A | ~0.1
chain 1 K699A | ~0.1
chain 1 R691A | ~1.5
chain 1 I602E | ~0.01
